The values that follow come from publication doi:10.1101/2025.11.20.689565, “Phosphorylation remodels the mitotic centrosome matrix to generate bipartite γ-tubulin complex docking sites” (bioRxiv, 2025).

Data set [1] concerns the molecule itself. Briefly: SEC-MALS; Superose 6 increase 10/300 or Superdex 200 increase 10/300 in 20 mM Tris-HCl pH 7.5, 50 mM NaCl, 5 mM EGTA, 2 mM MgCl2, 1 mM DTT; 120 μL of ~2.0 mg/ml protein loaded; with or without PLK1 phosphorylation. (In general: In gel filtration, larger molecules generally elute earlier.)
Data set [2] has as its target T1, untagged SPD-5 aa 101-473, not phosphorylated (C. elegans, UniProt P91349 101-473).
T1 construct: source: E. coli BL21(DE3) pLysS, purified (glutathione agarose, cleaved off GST)
T1 sequence (looked up): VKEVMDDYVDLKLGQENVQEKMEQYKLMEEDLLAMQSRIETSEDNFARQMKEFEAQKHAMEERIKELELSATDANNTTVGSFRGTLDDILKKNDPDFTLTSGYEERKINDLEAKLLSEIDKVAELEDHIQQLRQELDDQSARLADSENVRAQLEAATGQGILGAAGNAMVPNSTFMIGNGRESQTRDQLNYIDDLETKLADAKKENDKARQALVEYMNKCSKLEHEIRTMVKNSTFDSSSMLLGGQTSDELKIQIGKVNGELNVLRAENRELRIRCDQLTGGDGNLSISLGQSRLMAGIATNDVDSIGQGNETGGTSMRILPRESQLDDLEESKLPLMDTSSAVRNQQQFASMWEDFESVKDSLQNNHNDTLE
Description: pull-down; MBP pull-down: purified SPD-5 fragments mixed at 2.0 μM with or without 500 nM PLK1(T194D) in kinase buffer 1 h at 23°C; then 75 nM each with 2 μg anti-MBP antibody in lysis buffer 2 h at 4°C and protein A beads 1 h at 4°C; five washes; immunoblot or Coomassie. The conditions noted are these: both partners purified.

B1: untagged SPD-5 aa 1-473, not phosphorylated (domain or fragment, C. elegans, UniProt P91349 1-473, looked up)
chain: MEDNSVLNEDSNLEHVEGQPRRSMSQPVLNVEGDKRTSSTSATQQQVLSGAFSSADVRSIPIIQTWEENKALKTKITILRGELQMYQRRYSEAKEASQKRVKEVMDDYVDLKLGQENVQEKMEQYKLMEEDLLAMQSRIETSEDNFARQMKEFEAQKHAMEERIKELELSATDANNTTVGSFRGTLDDILKKNDPDFTLTSGYEERKINDLEAKLLSEIDKVAELEDHIQQLRQELDDQSARLADSENVRAQLEAATGQGILGAAGNAMVPNSTFMIGNGRESQTRDQLNYIDDLETKLADAKKENDKARQALVEYMNKCSKLEHEIRTMVKNSTFDSSSMLLGGQTSDELKIQIGKVNGELNVLRAENRELRIRCDQLTGGDGNLSISLGQSRLMAGIATNDVDSIGQGNETGGTSMRILPRESQLDDLEESKLPLMDTSSAVRNQQQFASMWEDFESVKDSLQNNHNDTLE
notes: also called SPD-5 N-terminus; source: E. coli BL21(DE3) pLysS, purified (glutathione agarose, cleaved off GST)
As for B1, the “stoichiometry N” value in data set [1] is 2.

B2: untagged SPD-5 aa 1-473, PLK1-phosphorylated (domain or fragment, C. elegans, UniProt P91349 1-473, looked up)
chain: B1 chain
modifications: phosphorylated in vitro by PLK1(T194D); sites not all mapped (predicted PLK1 sites S5, S11, S170, T178, T198, T274, T335, S339, S340)
notes: source: E. coli BL21(DE3) pLysS, purified (glutathione agarose, cleaved off GST); incubated with PLK1-6His and ATP
As to B2, the “stoichiometry N” value in data set [1] worked out at 2.

B3: MBP-6His-HA (M6HH)-tagged SPD-5 aa 1-473, not phosphorylated (domain or fragment, C. elegans, UniProt P91349 1-473, looked up)
chain: B1 chain
notes: source: E. coli BL21(DE3) pLysS, purified (Ni-NTA)
B3: the “stoichiometry N” value in data set [1] is 2.

B4: MBP-6His-HA (M6HH)-tagged SPD-5 aa 1-345, not phosphorylated (domain or fragment, C. elegans, UniProt P91349 1-345, looked up)
chain: MEDNSVLNEDSNLEHVEGQPRRSMSQPVLNVEGDKRTSSTSATQQQVLSGAFSSADVRSIPIIQTWEENKALKTKITILRGELQMYQRRYSEAKEASQKRVKEVMDDYVDLKLGQENVQEKMEQYKLMEEDLLAMQSRIETSEDNFARQMKEFEAQKHAMEERIKELELSATDANNTTVGSFRGTLDDILKKNDPDFTLTSGYEERKINDLEAKLLSEIDKVAELEDHIQQLRQELDDQSARLADSENVRAQLEAATGQGILGAAGNAMVPNSTFMIGNGRESQTRDQLNYIDDLETKLADAKKENDKARQALVEYMNKCSKLEHEIRTMVKNSTFDSSSMLLGG
notes: as for B3
Take B4: the “stoichiometry N” value in data set [1] came to 2.

B5: MBP-6His-HA (M6HH)-tagged SPD-5 aa 1-101, not phosphorylated (domain or fragment, C. elegans, UniProt P91349 1-101, looked up)
chain: MEDNSVLNEDSNLEHVEGQPRRSMSQPVLNVEGDKRTSSTSATQQQVLSGAFSSADVRSIPIIQTWEENKALKTKITILRGELQMYQRRYSEAKEASQKRV
notes: also called PRGB1; source: E. coli BL21(DE3) pLysS, purified (Ni-NTA)
Take B5: the binding result in data set [2] is “binds”.

The stoichiometry N is the number of molecules, sites or subunits per partner or assembly.
